Values quoted from earlier work in paper PMC4186963.

Target: CD28 (Homo sapiens) (UniProt P10747)

- Kd: 200 nM
Substance: CD80 (from UniProt P33681)
